In publication PMC3835729 one finds Km, kcat and kcat/Km data, which are given here for three substances.

The data set deals with Nc1ncnc2c1ncn2[C@@H]1O[C@H](COP(=O)(O)NCCc2c[nH]c3ccccc23)[C@@H](O)[C@H]1O. Description: purified protein. As to conditions: 20 mM HEPES, 1 mM MgCl2, pH 7.2, 25 °C.

By Km is commonly meant the substrate concentration at which the rate is half of its maximum. What is called kcat is the maximal rate divided by the concentration of active sites. In general, kcat/Km refers to the second-order rate constant that governs catalysis at low substrate concentration.

Turning to “human histidine triad nucleotide binding protein 1 (hHint1) (Homo sapiens; H51A)”, the Km is 1.8 ± 0.2 µM, the kcat amounted to 0.53 ± 0.02 s⁻¹ and the kcat/Km came to 300000 ± 40000 M⁻¹ s⁻¹.
Regarding “human histidine triad nucleotide binding protein 1 (hHint1) (Homo sapiens; H114A)”, the Km was 0.27 ± 0.05 µM.
As to “human histidine triad nucleotide binding protein 1 (hHint1) (Homo sapiens)”, the Km turned out to be 0.13 ± 0.02 µM, the kcat stood at 2.1 ± 0.1 s⁻¹ and the kcat/Km stood at 1.5e+07 ± 3e+06 M⁻¹ s⁻¹.
